Assay results published in patent publication US20080274993.

System: DSCR1-FLAG (human Down syndrome critical region 1, C-terminal FLAG epitope)
Sequence (chain, as listed by the source): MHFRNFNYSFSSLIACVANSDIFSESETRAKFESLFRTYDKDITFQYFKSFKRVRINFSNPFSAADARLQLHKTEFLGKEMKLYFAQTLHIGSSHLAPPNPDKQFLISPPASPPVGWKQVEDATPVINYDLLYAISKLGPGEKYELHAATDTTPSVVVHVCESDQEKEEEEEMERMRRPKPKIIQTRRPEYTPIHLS

calcineurin A (CnA) was tested, and the “NFATc1 phosphorylation status (Western blot of extracts of activated HUVECs)” value was “a shift from the dephosphorylated form of NFATc1 to the phosphorylated form in response to DSCR1”.
